Assay results from patent publication US20120149881A1 (Genentech, published 2012).
Substitutions are numbered along the chain they refer to.

T1: M1′ peptide 5 (human)
T1 peptide: RAPDRVLCHSGQQQG

T2: M1′ peptide 4 (human)
T2 peptide: SAQSQRAPDRVLCHS

T3: M1' peptide 13
T3 construct: see f1
T3 peptide: PPELDVCVEEAEGEA

T4: M1' peptide 11
T4 construct: see f1
T4 peptide: CGAGRADWPGPPELD

T5: M1′ peptide 7 (human)
T5 peptide: GQQQGLPRAAGGSVP

T6: M1' peptide 6
T6 construct: see f1
T6 peptide: VLCHSGQQQGLPRAA

T7: M1′ peptide 8 (human)
T7 peptide: PRAAGGSVPHPRCH

T8: M1' peptide 9
T8 construct: see f1
T8 peptide: GGSVPHPRCHCGAGR

T9: M1' peptide 14
T9 construct: see f1
T9 peptide: VCVEEAEGEAPWTWT

T10: M1' peptide 15
T10 construct: see f1
T10 peptide: AEGEAPWTWTGLCIF

T11: M1' peptide 3
T11 construct: see f1
T11 peptide: GLAGGSAQSQRAPDR

T12: M1' peptide 2
T12 construct: see f1
T12 peptide: TVQRAVSVNPGLAGG

T13: M1' peptide 1
T13 peptide: ASPSQTVQRAVSVNP

T14: M1' peptide 12
T14 construct: see f1
T14 peptide: ADWPGPPELDVCVEE

T15: M1' peptide 10
T15 construct: see f1
T15 peptide: HPRCHCGAGRADWPG

T16: rhesus IgE/M1′ expressed on transduced Daudi cells (human IgE/primate M1′ cassette, rhesus) (rhesus monkey)
T16 construct: The construct is described as a 'human IgE/primate M1′ cassette'; also called Rhesus M1′
T16 chain: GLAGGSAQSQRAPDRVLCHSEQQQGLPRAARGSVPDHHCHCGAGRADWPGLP

T17: cyno IgE/M1′ expressed on transduced Daudi cells (human IgE/primate M1′ cassette, cynomolgus) (cynomolgus monkey)
T17 construct: The construct is described as a 'human IgE/primate M1′ cassette'; also called Cyno M1′
T17 chain: T16 chain with H38R

B1: murine anti-IgE/M1′ antibody 7A6 (antibody, V domains shown)
VH: QVQLQQSGAELVRPGASVTLSCKASGYTFIDYEMHWVKQTPVHGLEWIGAIDPETGTTAYNQKFKGKATLTAAKSSSTAYMELRSLTSEDSAVYYCTRLRPHYDYDNAMDSWGQGTTLTVSS
VL: DIVMSQSPSSLTVSVGEKVTLSCKSSQTLLYSTNQKNYLAWYQQKPGQSPKLLIYWASTRESGVPDRFTGSGSGTDFTLTISSVKAEDLAVYYCQQYYSYPYTFGGGTKVEIKR
notes: mIgG1 hybridoma antibody; also called mu7A6; 7A6 mIgG1
B2: humanized anti-IgE/M1′ antibody 7A6.v1 (antibody, V domains shown)
VH: EVQLVESGGGLVQPGGSLRLSCAASGYTFIDYEMHWVRQAPGKGLEWVGAIDPETGTTAYNQKFKGRFTISADTSKNTAYLQMNSLRAEDTAVYYCTRLRPHYDYDNAMDSWGQGTLVTVSS
VL: DIQMTQSPSSLSASVGDRVTITCKSSQTLLYSTNQKNYLAWYQQKPGKAPKLLIYWASTRESGVPSRFSGSGSGTDFTLTISSLQPEDFATYYCQQYYSYPYTFGQGTKVEIKR
notes: direct CDR graft, huIgG1; also called 7A6v1 huIgG1; 7A67v1 [sic]
B3: humanized anti-IgE/M1′ antibody 47H4.v5 (antibody, V domains shown)
VH: EVQLVESGGGLVQPGGSLRLSCAASGFTFSDYGIAWVRQAPGKGLEWVAFISDLAYTIYYADTVTGRFTISRDNSKNTLYLQMNSLRAEDTAVYYCARDNWDAMDYWGQGTLVTVSS
VL: DIQMTQSPSSLSASVGDRVTITCRSSQSLVHNNANTYLHWYQQKPGKAPKLLIYKVSNRFSGVPSRFSGSGSGTDFTLTISSLQPEDFATYYCSQNTLVPWTFGQGTKVEIKR
notes: huIgG1; also called 47H4v5 huIgG1; 47H5 v.5
B4: humanized anti-IgE/M1′ antibody 26A11.v6 (antibody, V domains shown)
VH: EVQLVESGGGLVQPGGSLRLSCAASGYTFTDYYIMWVRQAPGKGLEWVGDINPNNYDTSYNQKFKGRFTISADTSKNTAYLQMNSLRAEDTAVYYCASKAYWGQGTLVTVSS
VL: DIQMTQSPSSLSASVGDRVTITCRSSQDISNYLNWYQQKPGKAPKLLIYSTSRLHSGVPSRFSGSGSGTDFTLTISSLQPEDFATYYCQQGHTLPWTFGQGTKVEIKR
notes: huIgG1; also called 26A11v6 huIgG1

Columns and labels:
[1] = molecular target: T18, human IgE with the M1′ sequence (long form of membrane IgE) expressed on transduced BJAB or Daudi cells (human, UniProt P01854 116-546); test: Scatchard analysis on cells expressing human IgE/M1′
T18 construct: Full-length heavy and light chains of the U266 IgE B cell receptor, retrovirally expressed; also called IgE/M1′; IgE-M1′
T18 sequence (P01854 116-546 I515L limits assumed): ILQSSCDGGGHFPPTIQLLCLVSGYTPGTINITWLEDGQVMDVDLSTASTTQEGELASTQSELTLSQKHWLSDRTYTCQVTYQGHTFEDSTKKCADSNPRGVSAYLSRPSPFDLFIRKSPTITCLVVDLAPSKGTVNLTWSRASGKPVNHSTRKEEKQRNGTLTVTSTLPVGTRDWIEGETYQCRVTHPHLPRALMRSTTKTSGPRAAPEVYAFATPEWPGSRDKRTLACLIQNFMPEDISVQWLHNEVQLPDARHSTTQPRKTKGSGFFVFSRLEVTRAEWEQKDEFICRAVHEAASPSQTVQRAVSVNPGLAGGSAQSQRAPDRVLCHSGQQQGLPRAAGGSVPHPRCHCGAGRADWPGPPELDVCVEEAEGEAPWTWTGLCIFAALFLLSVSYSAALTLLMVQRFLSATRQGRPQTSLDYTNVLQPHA
Description: The BJAB or Daudi cells expressing various forms of IgE with or without M1′ (Human, Rhesus, Cyno) were prepared for binding in cold Binding buffer composed of base media, with 10 mM HEPES pH 7.4, and 2% FBS as well as 40 ug/ml human IgG. Cells are diluted to concentration of 1.7×10⁶ cells/ml, and kept on ice until they are added to the assay. The proteins/antibodies are iodinated with the Iodogen method. Various concentrations of cold protein are prepared in triplicate, using a 1:2 dilution starting with the saturation concentration and ending at a concentration of zero, with a total of 14 concentrations. Hot protein of a single concentration is added to all dilutions compete with the cold protein. Lastly the cells are added to the hot and cold protein mixture, 250,000 cells per sample were used. Assay is kept at 4° C. for 4 hours, shaking. Each sample is then collected and filtered on membrane, washed at least 3 times with binding buffer, allowed to dry and then counted for 1 minute using Perkin Elmer Wizard 1470 Auto Gamma Counter.

[2] = molecular target: T18, human IgE with the M1′ sequence (long …); test: Scatchard, iodinated antibody on IgE/M1′ cells
[3] = molecular target: T1, M1′ peptide 5; test: ELISA on coated antigen, relative OD450/650
Description: (§1) 15 peptides were generated spanning the sequence surrounding and including human M1′ (Clifford Quan) (FIG. 5A). Peptides were resuspended in either dH20 or 50% DMSO. […] 0.05% Tween-20, 10 ppm Proclin., 0.2% BgG, 0.25% Chaps, 5 mM EDTA, 0.35M NaCl]. […] Plates were then incubated for 2 hours at room temperature. Murine antibody plates were washed 3 times and then anti-mouse IgG1-Biotin (BD Biosciences (A85-1) #553441) was added (1:10,000, 100 μl per well) and incubated for 1 hour at RT. Following 3 washes, SA-HRP (BD Biosciences #554066) was added (1:20,000, 100 μl per well) and incubated for 1 hour. Human IgG1 antibody plates were washed as before and anti-hulgG.Fc-HRP (Jackson ImmunoResearch (#109-036-098)) was added (1:10,000, 100 μl per well) and incubated for 1 hour at RT. Once secondary incubations were complete, plates were washed 6 times and TMB substrate (BD OptEIA #555214) was added (100 μl per well). The substrate-HRP reaction was stopped with 1M H3PO4 after ˜4 minutes. Plates were then read at 450/650. Data was represented as relative OD (OD₄₅₀/CD650).

[4] = molecular target: T2, M1′ peptide 4; test: ELISA on coated antigen, relative OD450/650
Description: as §1

[5] = molecular target: T19, human IgE CH3-CH4-M1′/Fc fusion protein (human); test: SPR Biacore A100, M1′ immobilized
T19 construct: also called M1′ (immobilized)
T19 sequence (chain, as listed by the source limits assumed): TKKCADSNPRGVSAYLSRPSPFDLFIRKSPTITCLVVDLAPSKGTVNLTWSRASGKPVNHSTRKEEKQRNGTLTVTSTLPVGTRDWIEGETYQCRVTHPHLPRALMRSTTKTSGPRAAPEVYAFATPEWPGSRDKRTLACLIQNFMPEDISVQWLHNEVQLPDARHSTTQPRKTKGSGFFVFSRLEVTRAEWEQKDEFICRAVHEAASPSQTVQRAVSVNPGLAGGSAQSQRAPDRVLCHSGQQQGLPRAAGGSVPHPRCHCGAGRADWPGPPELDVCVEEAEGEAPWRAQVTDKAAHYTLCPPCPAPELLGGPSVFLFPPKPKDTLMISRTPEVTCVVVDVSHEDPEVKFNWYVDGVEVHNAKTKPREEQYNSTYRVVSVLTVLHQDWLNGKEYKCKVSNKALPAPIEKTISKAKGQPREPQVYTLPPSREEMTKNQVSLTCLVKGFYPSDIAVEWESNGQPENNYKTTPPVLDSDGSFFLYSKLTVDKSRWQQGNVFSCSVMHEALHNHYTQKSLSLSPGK

[6] = molecular target: T18, human IgE with the M1′ sequence (long …); test: competitive ECL binding on BJAB-IgE/M1′ cells vs biotinylated 26A11 or 47H4, 1st IC50 column
[7] = molecular target: T3, M1' peptide 13; test: ELISA on coated antigen, relative OD450/650
Description: as §1

[8] = molecular target: T4, M1' peptide 11; test: ELISA on coated antigen, relative OD450/650
Description: as §1

[9] = molecular target: T5, M1′ peptide 7; test: ELISA on coated antigen, relative OD450/650
Description: as §1

[10] = molecular target: T6, M1' peptide 6; test: ELISA on coated antigen, relative OD450/650
Description: as §1

[11] = molecular target: T7, M1′ peptide 8; test: ELISA on coated antigen, relative OD450/650
Description: as §1

[12] = molecular target: T8, M1' peptide 9; test: ELISA on coated antigen, relative OD450/650
Description: as §1

[13] = molecular target: T9, M1' peptide 14; test: ELISA on coated antigen, relative OD450/650
Description: as §1

[14] = molecular target: T10, M1' peptide 15; test: ELISA on coated antigen, relative OD450/650
Description: as §1

[15] = molecular target: T11, M1' peptide 3; test: ELISA on coated antigen, relative OD450/650
Description: as §1

[16] = molecular target: T12, M1' peptide 2; test: ELISA on coated antigen, relative OD450/650
Description: as §1

[17] = molecular target: T13, M1' peptide 1; test: ELISA on coated antigen, relative OD450/650
Description: as §1

[18] = molecular target: T14, M1' peptide 12; test: ELISA on coated antigen, relative OD450/650
Description: as §1

[19] = molecular target: T15, M1' peptide 10; test: ELISA on coated antigen, relative OD450/650
Description: as §1

[20] = molecular target: T16, rhesus IgE/M1′ expressed on transduced …; test: Scatchard analysis on cells expressing rhesus IgE/M1′
[21] = molecular target: T17, cyno IgE/M1′ expressed on transduced …; test: Scatchard analysis on cells expressing cyno IgE/M1′
[22] = molecular target: T19, human IgE CH3-CH4-M1′/Fc fusion protein; test: SPR Biacore 2000, M1′-Fc immobilized
[23] = molecular target: T18, human IgE with the M1′ sequence (long …); test: competitive ECL binding on BJAB-IgE/M1′ cells vs biotinylated 26A11 or 47H4, 2nd IC50 column
[24] = molecular target: T19, human IgE CH3-CH4-M1′/Fc fusion protein; test: SPR Biacore 2000, IgG immobilized, M1′-Fc analyte

Binder | Kd [1] [nM] | binding result [3] | binding result [4] | Kd [5] [nM] | IC50 [6] [nM] | binding result [7] | binding result [8] | binding result [9] | binding result [10] | binding result [11] | binding result [12] | binding result [13] | binding result [14] | binding result [15] | binding result [16] | binding result [17] | binding result [18] | binding result [19] | IC50 [23] [nM] | other results
B1 | 0.64 | binds | binds | 4.5 | 52 | – | – | – | – | – | – | – | – | – | – | – | – | – | – | Kd [2]: 0.6 nM
B2 | – | binds | binds | 15 | 39 | no binding | no binding | no binding | no binding | no binding | no binding | no binding | no binding | no binding | no binding | no binding | no binding | no binding | – | –
B3 | 1.5 | no binding | binds | – | – | no binding | no binding | no binding | no binding | no binding | no binding | no binding | no binding | no binding | no binding | no binding | no binding | no binding | 60 | Kd [20]: 1.3 nM; Kd [21]: 2.5 nM; Kd [22]: 23 nM
B4 | 1.85 | no binding | no binding | 2.6 | 11 | no binding | no binding | binds | no binding | binds | no binding | no binding | no binding | no binding | no binding | no binding | no binding | no binding | 23 | Kd [24]: 8.3 nM
